# No end group written: not given here.
# T1: His-tagged P3028 (human, also: His-tag, terminus and sequence not given here)
# T1 construct: used in solution in the PEPSCAN (rampo) ELISA; also called PGE73; His-tag-P3028; not shown: His tag
# T1 peptide: VFDEFKPLVEEPQNLIK
# Molecular target: T1, His-tagged P3028
# Test: PEPSCAN ELISA (rampo)
Binder,rampo score relative to the P28R control sample,RAMPO Score
KKLDTTFVKLSLFTER [SEQ ID NO 318],≥ 98 % of P28R control,
KKLDTFMVKLSLFTER [SEQ ID NO 321],≥ 98 % of P28R control,
KKLDTFFVKASLFTER [SEQ ID NO 332],≥ 98 % of P28R control,
KKLDTFSVKLSLFTER [SEQ ID NO 323],≥ 98 % of P28R control,
KKLDTFFRKLSLFTER (also called P28R with R at position 8) [SEQ ID NO 330],≥ 98 % of P28R control,≥ 302 rampo units
KKLDTFFVKVSLFTER [SEQ ID NO 343],≥ 98 % of P28R control,
KKLDTFFPKLSLFTER (also called P28R with P at position 8) [SEQ ID NO 329],≥ 98 % of P28R control,≥ 302 rampo units
KKLDTFFFKLSLFTER (also called P28R with F at position 8) [SEQ ID NO 326],≥ 98 % of P28R control,≥ 302 rampo units
KKLDTFLVKLSLFTER [SEQ ID NO 320],≥ 98 % of P28R control,
KKLDTVFVKLSLFTER [SEQ ID NO 319],≥ 98 % of P28R control,
KKLDTFFVKMSLFTER [SEQ ID NO 336],≥ 98 % of P28R control,
KKLDTFFVKTSLFTER [SEQ ID NO 342],≥ 98 % of P28R control,
KKLDTFFLKLSLFTER (also called P28R with L at position 8) [SEQ ID NO 328],≥ 98 % of P28R control,≥ 302 rampo units
KKLDTFFVKNSLFTER [SEQ ID NO 337],≥ 98 % of P28R control,
KKLDTFFVKQSLFTER [SEQ ID NO 339],≥ 98 % of P28R control,
KKLDTFFVRLSLFTER [SEQ ID NO 331],≥ 98 % of P28R control,
KKLDTFFVKFSLFTER [SEQ ID NO 333],≥ 98 % of P28R control,
KKLDTFTVKLSLFTER [SEQ ID NO 324],≥ 98 % of P28R control,
KKLDTFVVKLSLFTER [SEQ ID NO 325],≥ 98 % of P28R control,
KKLDTFFVKRSLFTER [SEQ ID NO 340],≥ 98 % of P28R control,
KKLDTFQVKLSLFTER [SEQ ID NO 322],≥ 98 % of P28R control,
KKLDTFFGKLSLFTER (also called P28R with G at position 8) [SEQ ID NO 327],≥ 98 % of P28R control,≥ 302 rampo units
KKLDTFFVKPSLFTER [SEQ ID NO 338],≥ 98 % of P28R control,
KKLDTFFVKGSLFTER [SEQ ID NO 334],≥ 98 % of P28R control,
KKLDTFFVKISLFTER [SEQ ID NO 335],≥ 98 % of P28R control,
KKLDTFFVKSSLFTER [SEQ ID NO 341],≥ 98 % of P28R control,

# More lines, now with the values ahead:
rampo score relative to the P28R control sample,RAMPO Score,Binder
≥ 98 % of P28R control,,KKLDTFFVKLSNFTER [SEQ ID NO 354]
≥ 98 % of P28R control,,KKLDTFFVKLSAFTER [SEQ ID NO 350]
≥ 98 % of P28R control,,KKLDTFFVKLSTFTER [SEQ ID NO 358]
≥ 98 % of P28R control,,KKLDTFFVKLSLSTER [SEQ ID NO 372]
≥ 98 % of P28R control,,KKLDTFFVKLSLTTER [SEQ ID NO 373]
≥ 98 % of P28R control,,KKLDTFFVKLSQFTER [SEQ ID NO 355]
≥ 98 % of P28R control,,KKLDTFFVKLSLATER [SEQ ID NO 361]
≥ 98 % of P28R control,,KKLDTFFVKLSWFTER [SEQ ID NO 360]
≥ 98 % of P28R control,,KKLDTFFVKLHLFTER [SEQ ID NO 345]
≥ 98 % of P28R control,,KKLDTFFVKLSRFTER [SEQ ID NO 356]
≥ 98 % of P28R control,,KKLDTFFVKLSLFMER [SEQ ID NO 381]
≥ 98 % of P28R control,,KKLDTFFVKYSLFTER [SEQ ID NO 344]
≥ 98 % of P28R control,,KKLDTFFVKLSLVTER [SEQ ID NO 374]
≥ 98 % of P28R control,,KKLDTFFVKLSLFIER [SEQ ID NO 379]
≥ 98 % of P28R control,,KKLDTFFVKLSLLTER [SEQ ID NO 366]
≥ 98 % of P28R control,,KKLDTFFVKLSLHTER [SEQ ID NO 364]
≥ 98 % of P28R control,,KKLDTFFVKLSLNTER [SEQ ID NO 368]
≥ 98 % of P28R control,,KKLDTFFVKLSLRTER [SEQ ID NO 371]
≥ 98 % of P28R control,,KKLDTFFVKLSLCTER [SEQ ID NO 362]

rampo score relative to the P28R control sample,RAMPO Score,Binder
≥ 98 % of P28R control,,KKLDTFFVKLSLFFER [SEQ ID NO 376]
≥ 98 % of P28R control,,KKLDTFFVKLSLMTER [SEQ ID NO 367]
≥ 98 % of P28R control,,KKLDTFFVKLMLFTER [SEQ ID NO 346]
≥ 98 % of P28R control,,KKLDTFFVKLSLFHER [SEQ ID NO 378]
≥ 98 % of P28R control,,KKLDTFFVKLSVFTER [SEQ ID NO 359]
≥ 98 % of P28R control,,KKLDTFFVKLQLFTER [SEQ ID NO 348]
≥ 98 % of P28R control,,KKLDTFFVKLSLITER [SEQ ID NO 365]
≥ 98 % of P28R control,,KKLDTFFVKLSSFTER [SEQ ID NO 357]
≥ 98 % of P28R control,,KKLDTFFVKLSLFLER [SEQ ID NO 380]
≥ 98 % of P28R control,,KKLDTFFVKLSHFTER [SEQ ID NO 351]
≥ 98 % of P28R control,,KKLDTFFVKLSLGTER [SEQ ID NO 363]
≥ 98 % of P28R control,,KKLDTFFVKLTLFTER [SEQ ID NO 349]
≥ 98 % of P28R control,,KKLDTFFVKLSLQTER [SEQ ID NO 370]
≥ 98 % of P28R control,,KKLDTFFVKLSLWTER [SEQ ID NO 375]
≥ 98 % of P28R control,,KKLDTFFVKLNLFTER [SEQ ID NO 347]
≥ 98 % of P28R control,,KKLDTFFVKLSIFTER [SEQ ID NO 352]
≥ 98 % of P28R control,,KKLDTFFVKLSLFGER [SEQ ID NO 377]
≥ 98 % of P28R control,,KKLDTFFVKLSMFTER [SEQ ID NO 353]
≥ 98 % of P28R control,,KKLDTFFVKLSLPTER [SEQ ID NO 369]
